Test results reported in article PMC12501149 (Proceedings of the National Academy of Sciences of the …, 2025).
Changes are numbered by the printed parent chain.

Legend:
[1] = biological target: T1, biotinylated RBD of TcsL (Paeniclostridium sordellii, UniProt Q46342 1-2364); experiment: SPR; settings: both partners purified
[2] = biological target: full length TcdB (C. difficile, UniProt P18177 1-2366); experiment: SPR; settings: both partners purified
[3] = biological target: TcdB2 (TcdB 027) (C. difficile); experiment: cell-based or functional assay
[4] = biological target: TcdB 1285-1804 with C-terminal Avitag (RBD toxin fragment) (C. difficile, UniProt P18177 1285-1804); experiment: SPR; settings: both partners purified
[5] = biological target: T1, biotinylated RBD of TcsL; experiment: SPR; settings: both partners purified; remark: listed apart in the source
[6] = biological target: T1, biotinylated RBD of TcsL; experiment: SPR; settings: both partners purified; remark: listed apart in the source

T1 sequence (Q46342 whole entry): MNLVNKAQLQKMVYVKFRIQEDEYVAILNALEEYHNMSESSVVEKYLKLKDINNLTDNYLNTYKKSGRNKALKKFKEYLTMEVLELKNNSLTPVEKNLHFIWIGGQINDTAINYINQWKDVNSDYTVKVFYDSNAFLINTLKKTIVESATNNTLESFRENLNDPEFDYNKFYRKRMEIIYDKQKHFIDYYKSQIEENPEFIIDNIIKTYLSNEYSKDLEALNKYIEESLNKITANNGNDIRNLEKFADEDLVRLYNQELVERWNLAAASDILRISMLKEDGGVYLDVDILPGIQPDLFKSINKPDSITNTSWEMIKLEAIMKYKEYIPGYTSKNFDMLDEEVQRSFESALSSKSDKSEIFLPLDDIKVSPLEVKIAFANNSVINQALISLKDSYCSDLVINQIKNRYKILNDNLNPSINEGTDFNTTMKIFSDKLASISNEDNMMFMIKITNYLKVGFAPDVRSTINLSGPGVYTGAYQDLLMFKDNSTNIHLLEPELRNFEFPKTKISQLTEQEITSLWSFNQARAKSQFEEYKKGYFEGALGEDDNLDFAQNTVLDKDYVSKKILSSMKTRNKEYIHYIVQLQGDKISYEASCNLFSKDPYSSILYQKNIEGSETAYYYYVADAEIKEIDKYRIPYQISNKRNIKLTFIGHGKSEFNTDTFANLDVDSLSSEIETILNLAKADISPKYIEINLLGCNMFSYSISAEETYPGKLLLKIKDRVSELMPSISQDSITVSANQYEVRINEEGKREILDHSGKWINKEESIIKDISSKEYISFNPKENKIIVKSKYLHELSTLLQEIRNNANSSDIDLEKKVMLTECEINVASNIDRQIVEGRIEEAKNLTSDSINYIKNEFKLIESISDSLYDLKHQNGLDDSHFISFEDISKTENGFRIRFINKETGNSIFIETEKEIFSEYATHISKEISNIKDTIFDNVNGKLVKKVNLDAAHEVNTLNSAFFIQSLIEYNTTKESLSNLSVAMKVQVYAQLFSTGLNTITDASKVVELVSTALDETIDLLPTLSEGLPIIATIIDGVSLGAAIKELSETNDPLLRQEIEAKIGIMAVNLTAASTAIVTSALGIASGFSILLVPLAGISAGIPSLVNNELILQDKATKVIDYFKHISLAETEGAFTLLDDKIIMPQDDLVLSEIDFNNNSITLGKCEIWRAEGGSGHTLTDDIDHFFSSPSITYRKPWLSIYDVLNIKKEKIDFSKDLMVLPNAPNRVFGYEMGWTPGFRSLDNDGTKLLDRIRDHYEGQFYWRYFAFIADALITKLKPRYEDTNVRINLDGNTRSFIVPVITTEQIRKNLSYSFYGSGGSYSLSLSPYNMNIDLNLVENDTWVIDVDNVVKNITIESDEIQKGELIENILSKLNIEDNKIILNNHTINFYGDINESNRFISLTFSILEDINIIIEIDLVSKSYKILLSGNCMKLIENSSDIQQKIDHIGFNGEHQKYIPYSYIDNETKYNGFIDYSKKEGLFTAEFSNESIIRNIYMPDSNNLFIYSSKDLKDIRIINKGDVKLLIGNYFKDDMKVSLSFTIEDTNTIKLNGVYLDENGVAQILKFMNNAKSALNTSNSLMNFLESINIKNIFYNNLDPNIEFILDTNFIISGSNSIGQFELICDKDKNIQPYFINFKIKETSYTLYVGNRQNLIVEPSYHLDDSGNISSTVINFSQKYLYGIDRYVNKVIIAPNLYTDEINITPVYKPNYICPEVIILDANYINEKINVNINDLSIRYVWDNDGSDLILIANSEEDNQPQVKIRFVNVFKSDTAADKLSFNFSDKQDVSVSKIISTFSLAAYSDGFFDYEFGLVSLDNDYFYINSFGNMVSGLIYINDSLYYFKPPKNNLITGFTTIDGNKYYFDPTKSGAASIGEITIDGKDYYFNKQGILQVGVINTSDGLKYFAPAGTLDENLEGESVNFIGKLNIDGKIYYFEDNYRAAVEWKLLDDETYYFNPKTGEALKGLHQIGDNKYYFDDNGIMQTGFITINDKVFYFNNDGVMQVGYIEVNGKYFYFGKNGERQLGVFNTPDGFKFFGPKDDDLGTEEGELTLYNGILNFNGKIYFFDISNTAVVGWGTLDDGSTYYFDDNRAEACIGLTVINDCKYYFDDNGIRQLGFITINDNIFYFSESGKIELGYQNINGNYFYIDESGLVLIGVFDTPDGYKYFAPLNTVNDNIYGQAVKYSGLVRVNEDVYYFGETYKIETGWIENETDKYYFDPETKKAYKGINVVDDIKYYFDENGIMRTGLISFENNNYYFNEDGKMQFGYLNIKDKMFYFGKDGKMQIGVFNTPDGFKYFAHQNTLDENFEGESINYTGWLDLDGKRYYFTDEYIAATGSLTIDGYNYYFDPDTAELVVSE
TcdB 1285-1804 with C-terminal Avitag (RBD toxin fragment), sequence (P18177 1285-1804): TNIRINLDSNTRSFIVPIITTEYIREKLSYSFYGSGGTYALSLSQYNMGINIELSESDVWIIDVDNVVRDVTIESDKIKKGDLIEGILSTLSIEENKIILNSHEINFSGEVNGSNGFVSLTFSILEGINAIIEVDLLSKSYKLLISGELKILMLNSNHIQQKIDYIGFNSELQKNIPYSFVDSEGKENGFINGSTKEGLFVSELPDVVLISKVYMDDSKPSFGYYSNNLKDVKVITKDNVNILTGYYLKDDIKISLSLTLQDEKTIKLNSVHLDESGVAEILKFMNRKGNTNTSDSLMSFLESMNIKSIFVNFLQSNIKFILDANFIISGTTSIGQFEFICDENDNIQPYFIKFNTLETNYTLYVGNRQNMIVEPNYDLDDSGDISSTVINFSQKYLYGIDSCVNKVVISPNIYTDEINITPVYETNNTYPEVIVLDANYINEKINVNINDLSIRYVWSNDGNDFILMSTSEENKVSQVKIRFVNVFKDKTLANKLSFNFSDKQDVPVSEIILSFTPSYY

B1: B4-M79 (designed binder)
chain: TEEIIKEIKKMKEKGEKASSIIDLLKKAGYSEIAKKAELAALKSENMTEAAAEKAIEELKGSQVKLEESGGGLVQAGGSLKLSCAASGSTFSSSSVGWYRQAPGQQRELVAAITSGGSTNTADSVKGRFTMSRDNAKNTVYLQMRDLKPEDTAVYYCNVAGRNWVPISRYSPGPYWGQGTQVTVSS
Kd [1]: 9.9 pM

B2: cspg67 (designed binder)
chain: AEELAKKLEEMAEVFKEKGDEEGAKECLKAAKIVRRSKNEEFGKWCIKKAEERLKKL
Kd [2]: 1950 pM
koff [2]: 0.00387 s⁻¹
kon [2]: 1.99e+06 M⁻¹ s⁻¹
IC50 of neutralization of TcdB2 in WT Vero cells (CSPG4-dependent entry), Figure S7B; 8-step 3-fold dilution series starting at 40 nM; mean across 2 independent replicates [3]: 1000 pM

B3: fzd24 (designed binder)
chain: GEKSKLELLCKMLLTKAKLTGKQKYKNDLKELIEYLNEKGYPDLAKEASAKLEEI
Kd [4]: 15.3 pM
koff [4]: 0.000649 s⁻¹
kon [4]: 4.24e+07 M⁻¹ s⁻¹

B4: F4 (designed binder)
chain: NEELIKEIKKLLKEGKPASEILELLKKAGKEEIAKEAEKAALSSYDMTKAAAEEAIKKLK
Kd [5]: 4280 pM
koff [5]: 0.00928 s⁻¹
kon [5]: 2.17e+06 M⁻¹ s⁻¹
Kd [6]: 4230 pM

B5: fzd13 (designed binder)
chain: AEKEVQELIDKALNTPDPKVASKYIISAVYVAAKARDPSLFQSALDTAKKL
Kd [4]: 5.55 pM
koff [4]: 0.00014 s⁻¹
kon [4]: 2.53e+07 M⁻¹ s⁻¹

B6: B4 (designed binder)
chain: TEEIIKEIKKMKEKGEKASSIIDLLKKAGYSEIAKKAELAALKSENMTEAAAEKAIEELK
Kd [5]: 56.9 pM
koff [5]: 0.000112 s⁻¹
kon [5]: 1.98e+06 M⁻¹ s⁻¹

B7: cspg4 (designed binder)
chain: ENKLARAVVTVNKSWLATQLFVRLYRLCKAGDPRCEEVAEKLRKVLELQGVPETDIELVVEVAKG
Kd [2]: 1980 pM
koff [2]: 0.0378 s⁻¹
kon [2]: 1.91e+07 M⁻¹ s⁻¹

B8: ss2cspg18 (designed binder)
chain: MDEKVEKLKECLEKLKEKGDIKGVIDTERAIRICERSRHKEFCEWAIEKCENRIKES
notes: also called c18; dual disulfide version of cspg18
Kd [2]: 865 pM
koff [2]: 0.00164 s⁻¹
kon [2]: 1.9e+06 M⁻¹ s⁻¹

B9: ss2cspg27 (designed binder)
chain: B8 chain with K4L, I25T, R29K, K49A, N52A
notes: also called c27; dual disulfide version of cspg27
Kd [2]: 507 pM
koff [2]: 0.000101 s⁻¹
kon [2]: 199000 M⁻¹ s⁻¹

B10: ss2cspg35 (designed binder)
chain: B8 chain with K4L, I21L, I25K, N52A
notes: also called dual disulfide version of cspg35
Kd [2]: 480 pM
koff [2]: 8.03e-05 s⁻¹
kon [2]: 167000 M⁻¹ s⁻¹

B11: fzd48 (designed binder)
chain: KEELEKMIEELKKLIENGDKENFIKLFDEAFKKAKESRDPRTIASVWTLVLEFKNKN
Kd [4]: 0.00975 pM
koff [4]: 3.33e-07 s⁻¹
kon [4]: 3.42e+07 M⁻¹ s⁻¹
